Data reported in US20200317768A1 (published 2020).
Where a chain is given by its changes, count along the chain named.

T1: cynomolgus monkey FcγRIIa1 extracellular domain, His-tagged (cynomolgus monkey)
T1 construct: also called cyno FcγRIIa1; FcgRIIa1; not shown: C-terminal His-tag
T1 chain: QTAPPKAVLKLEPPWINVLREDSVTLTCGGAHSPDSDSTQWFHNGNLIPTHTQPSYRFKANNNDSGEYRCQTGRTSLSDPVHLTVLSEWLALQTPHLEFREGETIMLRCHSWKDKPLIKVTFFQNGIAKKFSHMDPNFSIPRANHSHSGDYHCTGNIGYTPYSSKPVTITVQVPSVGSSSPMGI

T2: human FcγRIIaR extracellular domain, His-tagged (human, UniProt P12318 34-217)
T2 construct: also called human FcγRIIa (type R); FcgRIIaR; not shown: C-terminal His-tag
T2 chain: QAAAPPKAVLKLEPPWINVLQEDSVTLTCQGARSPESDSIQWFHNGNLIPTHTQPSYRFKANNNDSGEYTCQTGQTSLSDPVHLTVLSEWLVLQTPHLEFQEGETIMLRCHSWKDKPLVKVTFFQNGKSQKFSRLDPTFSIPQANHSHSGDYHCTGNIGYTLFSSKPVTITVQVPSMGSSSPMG

T3: cynomolgus monkey FcγRIIIaS extracellular domain, His-tagged (cynomolgus monkey, UniProt Q8SPW2 21-206 at identity 1.00))
T3 construct: also called cyno FcγRIIIaS; FcgRIIIaS; not shown: C-terminal His-tag
T3 chain: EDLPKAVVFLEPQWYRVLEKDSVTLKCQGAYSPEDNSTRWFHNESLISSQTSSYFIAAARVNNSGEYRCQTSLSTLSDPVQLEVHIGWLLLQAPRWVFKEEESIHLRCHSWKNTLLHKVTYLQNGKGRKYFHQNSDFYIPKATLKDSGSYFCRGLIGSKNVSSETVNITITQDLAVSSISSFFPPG

T4: cynomolgus monkey FcγRIIb extracellular domain, His-tagged (cynomolgus monkey)
T4 construct: also called cyno FcγRIIb; cynoFcγRIIb; not shown: C-terminal His-tag
T4 chain: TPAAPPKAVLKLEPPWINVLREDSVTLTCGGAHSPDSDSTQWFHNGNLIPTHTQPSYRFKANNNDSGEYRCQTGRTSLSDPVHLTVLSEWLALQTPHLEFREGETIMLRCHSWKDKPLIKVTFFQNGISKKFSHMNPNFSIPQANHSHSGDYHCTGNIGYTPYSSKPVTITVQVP

T5: cynomolgus monkey FcγRIIa2 extracellular domain, His-tagged (cynomolgus monkey)
T5 construct: also called cyno FcγRIIa2; FcgRIIa2; not shown: C-terminal His-tag
T5 chain: T1 chain with P95T, T121A, I127K, A128S, K130N, D135N, R142Q

T6: human FcγRIIaH extracellular domain, His-tagged (human, UniProt P12318 34-217)
T6 construct: also called human FcγRIIa (type H); FcgRIIaH; not shown: C-terminal His-tag
T6 sequence: T2 chain with R134H

T7: cynomolgus monkey FcγRIIa3 extracellular domain, His-tagged (cynomolgus monkey)
T7 construct: also called cyno FcγRIIa3; FcgRIIa3; not shown: C-terminal His-tag
T7 chain: T1 chain with P95T, T121A, A128S, H133P, D135N

T8: human FcγRIIb extracellular domain, His-tagged (human, UniProt P31994 43-217)
T8 construct: also called FcgRIIb (human); not shown: C-terminal His-tag
T8 sequence: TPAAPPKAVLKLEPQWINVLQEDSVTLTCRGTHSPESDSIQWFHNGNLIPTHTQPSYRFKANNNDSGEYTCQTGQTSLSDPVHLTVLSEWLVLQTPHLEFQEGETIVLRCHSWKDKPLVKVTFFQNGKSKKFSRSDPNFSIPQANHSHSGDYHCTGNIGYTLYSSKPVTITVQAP

B1: M103205H795-MY453 / M103202L889-SK1 (antibody, human IgG1, kappa)
heavy: QVTLKESGPVLVKPTETLTLTCTVSGIDLSHDDISWVRQAPGKGLEWVGIISYAGSTYYASWAKGRLTISKDTSKNQVVLTMTNMDPVDTATYYCARGVPAYSHGGDLWGQGTLVTVSSASTKGPSVFPLAPSSKSTSGGTAALGCLVKDYFPEPVTVSWNSGALTSGVHTFPAVLQSSGLYSLSSVVTVPSSSLGTQTYICNVNHKPSNTKVDKKVEPKSCDKTHTCPPCPARELLTGPSVFLFPPKPKDTLMISRTPEVTCVVVDVSDEDPEVKFNWYVDGVEVHNAKTKPREEQYNSTYRVVSVLTVLHQDWLNGKEYKCKVSNKALPKPIEKTISKAKGQPREPQVYTLPPSREEMTKNQVSLTCLVKGFYPSDIAVEWESNGQPENNYKTTPPVLDSDGSFFLYSKLTVDKSRWQQGNVFSCSVMHEALHNHYTQKSLSLSP
light: DIVMTQSPATLSLSPGERATLSCTSSQSVYHANWLSWFQQKPGQPPKLLIYWASTLAYGVPSRFSGSGSGTDFTLTISSLQPEDAATYYCAGGYGGGRYAFGQGTKVEIKRTVAAPSVFIFPPSDEQLKSGTASVVCLLNNFYPREAKVQWKVDNALQSGNSQESVTEQDSKDSTYSLSSTLTLSKADYEKHKVYACEVTHQGLSSPVTKSFNRGEC
notes: substitution positions are EU numbers
B2: M103205H795-MY457 / M103202L889-SK1 (antibody, human IgG1, kappa)
heavy: B1 heavy with R234W
light: B1 light
notes: as for B1
B3: M103205H795-MY455 / M103202L889-SK1 (antibody, human IgG1, kappa)
heavy: B1 heavy with R234T
light: B1 light
notes: as for B1
B4: M103205H795-MY454 / M103202L889-SK1 (antibody, human IgG1, kappa)
heavy: B1 heavy with R234S
light: B1 light
notes: as for B1
B5: M103205H795-MY456 / M103202L889-SK1 (antibody, human IgG1, kappa)
heavy: B1 heavy with R234V
light: B1 light
notes: as for B1
B6: M103205H795-MY458 / M103202L889-SK1 (antibody, human IgG1, kappa)
heavy: B1 heavy with R234Y
light: B1 light
notes: as for B1

Target: T1, cynomolgus monkey FcγRIIa1 …
Assay: SPR (BIACORE), 25 C, antibody captured, FcgR as analyte; KD of SG1 divided by KD of variant;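 further: relative to parent M103205H795-SG1 carrying the SG1 human heavy chain constant region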
Procedure: (§1) The kinetic analysis of interactions between these antibodies and FcγR was carried out using BIACORE® T200 or BIACORE® 4000 (GE Healthcare). HBS-EP+ (GE Healthcare) was used as the running buffer, and the measurement temperature was set to 25° C. A chip produced by immobilizing Protein A. Protein A/G or mouse anti-human IgG kappa light chain (BD Biosciences) onto a Series S Sensor Chip CM4 or CM5 (GE Healthcare) by the amine-coupling method was used. […] After the measurement, the antibody captured on the chip was washed off by allowing reaction with 10 mM glycine-HCl, pH1.5 and 25 mM NaOH so that the chip was regenerated and used repeatedly. The sensorgrams obtained as measurement results were analyzed by the 1:1 Langmuir binding model using the BIACORE® Evaluation Software to calculate the binding rate constant ka (L/mol/s) and dissociation rate constant kd (l/s), and the dissociation constant KD (mol/L) was calculated from these values. […] Regarding such interactions, KD values were calculated using the following 1:1 binding model described in BIACORE® T100 Software Handbook BR1006-48 Edition AE.

| Binder | KD fold (SG1 = 1) [fold] |
| --- | --- |
| B1 | 0.5 |
| B2 | 4 |
| B3 | 1 |
| B4 | 0.8 |
| B5 | 1.7 |
| B6 | 1.8 |

Target: T2, human FcγRIIaR extracellular domain, …
Assay: as above
Procedure: as §1

| Binder | KD fold (SG1 = 1) [fold] |
| --- | --- |
| B1 | 0.7 |
| B2 | 15.1 |
| B3 | 2.4 |
| B4 | 1.4 |
| B5 | 3.8 |
| B6 | 6.5 |

Target: T9, human FcγRIIIaV extracellular domain, His-tagged (human, UniProt P08637 17-208)
T9 construct: also called human FcγRIIIa (V158); FcgRIIIaV; not shown: C-terminal His-tag
Assay: as above
Procedure: as §1

T9 sequence (P08637 17-208 F176V): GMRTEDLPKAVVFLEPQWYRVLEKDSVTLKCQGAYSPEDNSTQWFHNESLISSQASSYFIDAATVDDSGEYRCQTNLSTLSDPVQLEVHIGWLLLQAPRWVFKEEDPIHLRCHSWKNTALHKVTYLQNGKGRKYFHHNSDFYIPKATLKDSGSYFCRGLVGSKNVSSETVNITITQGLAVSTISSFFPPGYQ

| Binder | KD fold (SG1 = 1) [fold] |
| --- | --- |
| B1 | 0.1 |
| B2 | 0.2 |
| B3 | 0.1 |
| B4 | 0.1 |
| B5 | 0.2 |
| B6 | 0.2 |

Target: T3, cynomolgus monkey FcγRIIIaS …
Assay: as above
Procedure: as §1

| Binder | KD fold (SG1 = 1) [fold] |
| --- | --- |
| B1 | 0.1 |
| B2 | 0.3 |
| B3 | 0.1 |
| B4 | 0.1 |
| B5 | 0.2 |
| B6 | 0.3 |

Target: T4, cynomolgus monkey FcγRIIb extracellular …
Assay: as above
Procedure: as §1

| Binder | KD fold (SG1 = 1) [fold] |
| --- | --- |
| B1 | 0.3 |
| B2 | 9 |
| B3 | 2 |
| B4 | 1.3 |
| B5 | 3.5 |
| B6 | 4.2 |

Target: T5, cynomolgus monkey FcγRIIa2 …
Assay: as above
Procedure: as §1

| Binder | KD fold (SG1 = 1) [fold] |
| --- | --- |
| B1 | 0.5 |
| B2 | 6.1 |
| B3 | 1.8 |
| B4 | 1.6 |
| B5 | 3 |
| B6 | 3.2 |

Target: T6, human FcγRIIaH extracellular domain, …
Assay: as above
Procedure: as §1

| Binder | KD fold (SG1 = 1) [fold] |
| --- | --- |
| B1 | 0.9 |
| B2 | 5.3 |
| B3 | 2.2 |
| B4 | 1.7 |
| B5 | 4.1 |
| B6 | 4.3 |

Target: T7, cynomolgus monkey FcγRIIa3 …
Assay: as above
Procedure: as §1

| Binder | KD fold (SG1 = 1) [fold] |
| --- | --- |
| B1 | 0.8 |
| B2 | 14.2 |
| B3 | 3.1 |
| B4 | 1.2 |
| B5 | 5 |
| B6 | 5.7 |

Target: T8, human FcγRIIb extracellular domain, …
Assay: as above
Procedure: as §1

| Binder | KD fold (SG1 = 1) [fold] |
| --- | --- |
| B1 | 0.7 |
| B2 | 13.9 |
| B3 | 2.1 |
| B4 | 1.5 |
| B5 | 4.2 |
| B6 | 4.6 |
